From patent US20200062863A1 (CSL BEHRING, published 2020) come the findings set out here.

The target in assay [1] is T1, human Factor XIIa-beta (human, UniProt P00748 354-615, limits assumed).
T1 construct: Bought from Enzyme Research Laboratories; also called FXIIa beta; FXIIa-beta
T1 sequence: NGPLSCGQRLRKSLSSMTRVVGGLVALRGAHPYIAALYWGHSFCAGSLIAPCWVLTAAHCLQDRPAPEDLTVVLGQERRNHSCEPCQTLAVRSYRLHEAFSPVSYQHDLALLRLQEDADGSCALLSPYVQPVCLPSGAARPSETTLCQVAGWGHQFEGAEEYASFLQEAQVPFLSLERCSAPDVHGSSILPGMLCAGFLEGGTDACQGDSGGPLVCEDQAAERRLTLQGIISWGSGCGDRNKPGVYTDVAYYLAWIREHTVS
Nature of the assay: SPR (Biacore), purified IgG4 captured on anti-human IgG, FXIIa beta 0-40 nM, 1:1 fit, 25 C. (SPR reads the build-up and loss of mass on a sensor chip optically.)

The target of assay [2] is T2, S452G.
T2 construct: also called Mu-FXII S452G mutant with C-terminal 8xHis-tag; mutant i)
T2 single chain: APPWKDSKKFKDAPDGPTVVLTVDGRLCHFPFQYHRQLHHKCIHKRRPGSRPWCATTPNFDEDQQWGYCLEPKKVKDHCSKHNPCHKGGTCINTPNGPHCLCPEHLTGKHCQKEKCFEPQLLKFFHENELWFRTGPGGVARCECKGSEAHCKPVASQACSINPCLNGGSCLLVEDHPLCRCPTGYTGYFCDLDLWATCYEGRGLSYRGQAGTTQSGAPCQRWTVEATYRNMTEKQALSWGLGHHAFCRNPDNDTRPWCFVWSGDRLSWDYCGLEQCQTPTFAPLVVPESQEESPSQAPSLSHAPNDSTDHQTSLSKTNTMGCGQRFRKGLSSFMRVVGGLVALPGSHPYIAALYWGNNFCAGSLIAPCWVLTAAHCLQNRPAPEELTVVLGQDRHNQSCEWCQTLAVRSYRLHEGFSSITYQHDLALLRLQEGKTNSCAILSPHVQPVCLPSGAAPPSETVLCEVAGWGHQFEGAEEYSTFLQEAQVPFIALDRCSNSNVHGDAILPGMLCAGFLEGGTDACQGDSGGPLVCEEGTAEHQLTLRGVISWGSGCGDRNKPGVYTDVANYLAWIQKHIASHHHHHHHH
In words: Western blot of culture supernatant (non-reducing SDS-PAGE) probed with 3F7 mAb, anti-human IgG-FITC. In general terms: A western blot detects proteins with antibodies after separation by electrophoresis.

Assay [3] deals with T3, human FXIIa (human, UniProt P00748 20-615, limits assumed).
T3 sequence: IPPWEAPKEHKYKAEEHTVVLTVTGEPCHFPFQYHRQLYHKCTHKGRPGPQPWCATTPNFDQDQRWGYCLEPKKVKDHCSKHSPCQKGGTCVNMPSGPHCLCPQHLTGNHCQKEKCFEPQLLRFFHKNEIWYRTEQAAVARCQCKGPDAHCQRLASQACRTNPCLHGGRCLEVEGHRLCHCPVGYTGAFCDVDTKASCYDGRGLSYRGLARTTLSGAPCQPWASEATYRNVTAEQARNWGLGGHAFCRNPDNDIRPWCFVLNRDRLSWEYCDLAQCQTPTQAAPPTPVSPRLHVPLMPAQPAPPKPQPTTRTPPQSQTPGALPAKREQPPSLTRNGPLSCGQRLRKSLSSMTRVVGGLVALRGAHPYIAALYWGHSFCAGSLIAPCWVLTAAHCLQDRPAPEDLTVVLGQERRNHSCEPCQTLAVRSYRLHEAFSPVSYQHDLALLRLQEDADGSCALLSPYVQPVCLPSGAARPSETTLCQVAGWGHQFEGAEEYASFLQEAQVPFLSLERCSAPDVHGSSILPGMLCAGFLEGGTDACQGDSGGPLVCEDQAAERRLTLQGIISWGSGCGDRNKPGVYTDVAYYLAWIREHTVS
Nature of the assay: cell-based or functional assay.

B1: monoclonal antibody 3F7 (fully human IgG4/lambda) (antibody, V domains shown)
VH: EVQLLESGGGLVQPGGSLRLSCAASGFTFSKYIMQWVRQAPGKGLEWVSGIRPSGGTTVYADSVKGRFTISRDNSKNTLYLQMNSLRAEDTAVYYCARALPRSGYLISPHYYYYALDVWGQGTTVTVSS
VL: QSELTQPPSASGTPGQRVTISCSGSSSNIGRNYVYWYQQVPGTAPKLLIYSNNQRPSGVPDRFSGSKSGTSASLVISGLRSEDEADYYCAAWDASLRGVFGGGTKLTVLG
notes: also called 3F7 mAb; MAb 3F7
As to B1, in assay [1], the dissociation constant Kd was 8.6 nM, the off-rate constant (koff) worked out at 0.0011 s⁻¹ and the kon came out at 120000 M⁻¹ s⁻¹. Moreover, the binding result in assay [2] is “binds”. In addition, in assay [3], the “potency in the FXIIa amidolytic activity assay, against OT-2” value is approximately 2 fold.

A word on the Kd: it is the concentration at which binding is half-saturated. Low values mean tighter binding, high ones weaker binding. For orientation: koff means the rate constant with which the complex falls apart. A low value points to a long-lived complex. As a reminder, the kon is the rate constant with which the complex forms. Read a low kon as slow association.
